Read-outs that look alike come from different tables or passages of the source. *1 amine or outer side, *2 acyl side, *3 side chain or, on linkers, in order; H or OH if unused. Bridges are numbered along the chain shown (N, C = ends). TBMB = c1c(C[*:1])cc(C[*:3])cc1C[*:2]
Tests used:
[1] = biological target: T1, human plasma kallikrein (activated with factor XIIa) (human, UniProt P03952 20-638); test: cell-based or functional assay
[2] = biological target: T1, human plasma kallikrein (activated with …); test: cell-based or functional assay; remark: listed apart in the source
human thrombin = human thrombin (human, UniProt P00734 328-622); test: cell-based or functional assay
[3] = biological target: recombinant mouse plasma kallikrein (activated with thermolysin) (mouse, UniProt P26262 20-638); test: cell-based or functional assay
human factor XIa = human factor XIa (human, UniProt P03951 19-625); test: cell-based or functional assay
[4] = biological target: T1, human plasma kallikrein (activated with …); test: cell-based or functional assay; remark: listed apart in the source
[5] = biological target: T1, human plasma kallikrein (activated with …); test: apparent Ki calculated from the enzyme inhibition IC50 (fluorogenic substrate Z-Phe-Arg-AMC) with the Cheng and Prusoff equation

T1 sequence (P03952 20-638 limits assumed): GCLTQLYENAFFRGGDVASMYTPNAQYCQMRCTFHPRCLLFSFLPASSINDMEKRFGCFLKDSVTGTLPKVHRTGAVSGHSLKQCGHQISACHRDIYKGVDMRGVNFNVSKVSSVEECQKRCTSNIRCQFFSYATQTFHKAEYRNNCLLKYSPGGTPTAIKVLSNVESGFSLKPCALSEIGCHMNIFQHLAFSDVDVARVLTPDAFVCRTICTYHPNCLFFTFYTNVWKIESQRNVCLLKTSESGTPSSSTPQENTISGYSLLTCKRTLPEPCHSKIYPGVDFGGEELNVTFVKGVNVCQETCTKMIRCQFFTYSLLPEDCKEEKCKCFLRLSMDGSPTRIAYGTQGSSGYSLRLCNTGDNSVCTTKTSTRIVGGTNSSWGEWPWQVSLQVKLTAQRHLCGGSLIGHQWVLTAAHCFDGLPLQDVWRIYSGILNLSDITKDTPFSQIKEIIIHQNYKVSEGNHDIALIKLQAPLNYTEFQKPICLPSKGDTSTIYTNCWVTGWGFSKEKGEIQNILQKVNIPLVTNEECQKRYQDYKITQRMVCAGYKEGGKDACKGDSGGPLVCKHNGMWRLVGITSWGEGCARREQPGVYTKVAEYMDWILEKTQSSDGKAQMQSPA
recombinant mouse plasma kallikrein (activated with thermolysin), sequence (P26262 20-638 limits assumed): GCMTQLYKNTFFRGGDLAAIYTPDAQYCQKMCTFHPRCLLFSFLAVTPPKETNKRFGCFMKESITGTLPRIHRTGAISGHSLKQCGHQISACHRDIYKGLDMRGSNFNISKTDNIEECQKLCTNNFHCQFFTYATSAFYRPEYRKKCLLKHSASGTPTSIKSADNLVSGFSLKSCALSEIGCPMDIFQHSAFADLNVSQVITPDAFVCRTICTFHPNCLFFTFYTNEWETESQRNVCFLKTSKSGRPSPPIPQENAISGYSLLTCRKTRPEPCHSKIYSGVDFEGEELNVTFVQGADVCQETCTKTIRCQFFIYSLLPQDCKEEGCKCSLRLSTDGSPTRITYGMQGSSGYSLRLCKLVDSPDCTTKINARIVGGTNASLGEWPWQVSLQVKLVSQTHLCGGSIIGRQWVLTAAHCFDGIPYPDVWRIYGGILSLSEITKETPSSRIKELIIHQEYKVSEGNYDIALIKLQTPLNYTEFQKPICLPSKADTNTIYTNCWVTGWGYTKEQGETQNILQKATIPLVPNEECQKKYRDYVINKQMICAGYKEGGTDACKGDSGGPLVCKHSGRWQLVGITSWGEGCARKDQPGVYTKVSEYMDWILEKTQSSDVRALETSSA

Binder | IC50 (nM), residual enzyme activity [1] [nM] | IC50 (nM), residual enzyme activity [2] [nM] | inhibitory activity (residual enzyme activity) (human thrombin) [µM] | inhibitory activity (residual enzyme activity) [3] [µM] | inhibitory activity (residual enzyme activity) (human factor XIa) [µM] | IC50, residual enzyme activity [4] [nM] | Ki [5] [nM]
H-ACSDRFRNCPADEALCG-NH2 (cysteine pairing not given here) [linear synthetic peptide PK15 (not TBMB modified)] | > 10000 | > 10000 |  |  |  |  | 
H-ACSTERRYCPIEIFPCG-NH2 (cysteine pairing not given here) [linear synthetic peptide PK4 (not TBMB modified)] | 7180 | 7180 |  |  |  |  | 
H-ACSDRFRNCPLWSGTCG-NH2 (linker 2-9-16 via TBMB; SMILES CC(C)C[C@@H]1NC(=O)[C@@H]2CCCN2C(=O)[C@@H]2CSCc3cc(cc(c3)CSC[C@@H](C(=O)NCC(N)=O)NC(=O)[C@H]([C@@H](C)O)NC(=O)CNC(=O)[C@H](CO)NC(=O)[C@H](Cc3c[nH]c4ccccc34)NC1=O)CSC[C@H](NC(=O)[C@H](C)N)C(=O)N[C@@H](CO)C(=O)N[C@@H](CC(=O)O)C(=O)N[C@@H](CCCNC(=N)N)C(=O)N[C@@H](Cc1ccccc1)C(=O)N[C@@H](CCCNC(=N)N)C(=O)N[C@@H](CC(N)=O)C(=O)N2) [TBMB modified synthetic peptide PK2 (bi-cyclic peptide)] | 28.6 | 28.6 | > 10 | > 10 | > 10 |  | 
H-ACSDRFRNCPADEALCG-NH2 (linker 2-9-16 via TBMB, Chemically synthesized 17-mer reacted with TBMB; also called conjugate PK15; peptide conjugate PK15) [TBMB modified peptide PK15 (bi-cyclic peptide)] | 1.7 | 1.7 |  |  |  | 1.6 | 1.5
H-ACSDRFRNCPLWSGTCG-NH2 (cysteine pairing not given here) [linear synthetic peptide PK2 (not TBMB modified)] | > 10000 | > 10000 |  |  |  |  | 
H-ACSTERRYCPIEIFPCG-NH2 (linker 2-9-16 via TBMB; SMILES CC[C@H](C)[C@@H]1NC(=O)[C@H](CCC(=O)O)NC(=O)[C@H]([C@@H](C)CC)NC(=O)[C@@H]2CCCN2C(=O)[C@@H]2CSCc3cc(cc(c3)CSC[C@@H](C(=O)NCC(N)=O)NC(=O)[C@@H]3CCCN3C(=O)[C@H](Cc3ccccc3)NC1=O)CSC[C@H](NC(=O)[C@H](C)N)C(=O)N[C@@H](CO)C(=O)N[C@@H]([C@@H](C)O)C(=O)N[C@@H](CCC(=O)O)C(=O)N[C@@H](CCCNC(=N)N)C(=O)N[C@@H](CCCNC(=N)N)C(=O)N[C@@H](Cc1ccc(O)cc1)C(=O)N2) [TBMB modified synthetic peptide PK4 (bi-cyclic peptide)] | 33 | 33 | > 10 | > 10 | > 10 |  | 
H-ACSDRFRNCPADEALCG-NH2 (linker 2-9-16 via TBMB; also: one peptide bond in a loop hydrolysed, position not given here) [TBMB modified peptide PK15 hydrolysed in one binding loop by human plasma kallikrein] |  |  |  |  |  | 2.2 | 

Reference: patent US20150166988A1 (Bicycle, published 2015)
